From patent US7056679 (ANTYRA, dated 2006) come the findings set out here.

No end group written: not given here.

For the test, the target named is T1, DGI-2 (UniProt Q15004 1-111, limits assumed).
T1 construct: Soluble recombinant DGI-2 made by in vitro translation (RTS, pIVEX2.3-MCS vector) and coated on plates for the ELISA; vector tag not described; also called KIAA0101; DGI-2 polypeptide
T1 sequence (looked up): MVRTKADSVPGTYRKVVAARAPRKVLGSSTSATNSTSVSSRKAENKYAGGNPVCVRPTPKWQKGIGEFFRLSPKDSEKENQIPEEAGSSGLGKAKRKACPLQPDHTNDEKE
Description: phage ELISA, coated DGI-2. The protocol: For analysis of individual target binders, colonies were picked and phage prepared as described above using helper phage, M13KO7. Ninety-six-well microtiter plates were coated with 500 ng/well of specific target protein, 500 ng/well lactate dehydrogenase (LDH) irrelevant or non-specific target, 500 ng/well of positive control antibody raised against ETAG, and negative control of non-fat milk powder-PBS 2% at 4° C. overnight. Plates were then blocked with 350 microliters/well PBS containing 2% non-fat milk for 1 hr at room temperature. One hundred microliters per well of phage from isolated clones were added and plates were incubated at room temperature for 2 hr after centrifuging samples for 20 minutes at 3500 rpm at 4° C. The phage solution was then removed, and the wells were washed three times with PBS at room temperature. Antibody raised against M13 conjugated to horseradish peroxidase (Pharmacia) was diluted 1:3000 in PBS-Tween and added to each well (100 µl/well). Incubation was for 1 hr at room temperature, followed by washing with PBS-(0.5%) Tween 3 times as described. Color was developed by addition of ABTS solution (100 µl/well; Boehringer, Indianapolis, Ind.). Plates were analyzed at 405 nm. A clone was considered "positive" if the $A405$ of the well was $\geq$2-fold over background.
CYLSRLFRSGQGIGQFGHVE (on M13 phage, pIII fusion with E-tag) [DGI-2-20F-PP-A82]: the binding result is given as “binds”.
Regarding GASRVVDVGWRFWGKLWQRS (on M13 phage, pIII fusion with E-tag) [DGI-2-20F-PP-G5], the binding result is “binds”.
Under EGQRVVFLFGALVAGLCWRDR (on M13 phage, pIII fusion with E-tag) [DGI-2-20F-PP-F3] stands “binds”; under SVSGGGVFGTGGRVRHQVSG (on M13 phage, pIII fusion with E-tag) [DGI-2-20F-PP-C5], “binds”.
Under WVVALRRIRLGLRRGVECLL (on M13 phage, pIII fusion with E-tag) [DGI-2-20F-PP-D5] stands “binds”; under WWREWVDGSLRGGGGTVLKD (on M13 phage, pIII fusion with E-tag) [DGI-2-20R-3-A122], “binds”; under RKGWGVFCIPGLRFCDWSDP (not fully specified; cysteine pairing not given here, on M13 phage, pIII fusion with E-tag) [DGI-2-20R-3-B4], “binds”.
Under CGGWGAMWEAWVQGLNGAGC (not fully specified; cysteine pairing not given here, on M13 phage, pIII fusion with E-tag) [DGI-2-20R-3-D4] stands “binds”; under MGADTCMGGKMPFDQMFGAV (on M13 phage, pIII fusion with E-tag) [DGI-2-20F-PP-E10], “binds”; under DGRGWGAMWMRWAEGLGADI (on M13 phage, pIII fusion with E-tag) [DGI-2-20R-4-G114], “binds”.
In the case of VVGYAQGDGLEGGLGSSRDGS (on M13 phage, pIII fusion with E-tag) [DGI-2-20F-PP-D8], the binding result is “binds”.
As to LFSATGCALMSGFCLGSDGS (not fully specified; cysteine pairing not given here, on M13 phage, pIII fusion with E-tag) [DGI-2-20R-3-C1], the binding result is on record as “binds”.
SVTISTSCRTGCPAGYLRRD (not fully specified; cysteine pairing not given here, on M13 phage, pIII fusion with E-tag) [DGI-2-20F-PP-D2]: the binding result is “binds”.
In the case of VWAAWVEGSLLSPRQEPVRD (on M13 phage, pIII fusion with E-tag) [DGI-2-20R-4-G4], the binding result was “binds”.
As for GHGAGDWAAELFVCPVAFLTGFAWR (on M13 phage, pIII fusion with E-tag) [DGI-2-20R-4-H2], the entry is “binds”.
Take RQRSGGRWVVDRVTRVASTSP (on M13 phage, pIII fusion with E-tag) [DGI-2-20F-PP-B12]: the binding result is reported as “binds”.
Under VCSGGKGTWLEIPDRVRSST (on M13 phage, pIII fusion with E-tag) [DGI-2-20F-PP-A22] stands “binds”.
Consider LFRFSGTGMASLPCVGWHLV (on M13 phage, pIII fusion with E-tag) [DGI-2-20F-PP-B6], for which the binding result was “binds”.
As for GLYQRGLAPRCRGERFGVRN (on M13 phage, pIII fusion with E-tag) [DGI-2-20F-PP-C2], the entry is “binds”; as for SLLCVVCRPVSGGRALGGVP (not fully specified; cysteine pairing not given here, on M13 phage, pIII fusion with E-tag) [DGI-2-20F-PP-B42], “binds”; as for VSGVPDGSMRAAQLASGYWC (on M13 phage, pIII fusion with E-tag) [DGI-2-20F-PP-G2], “binds”.
Under GGSLPVKSGQLVTCCTSKGG (on M13 phage, pIII fusion with E-tag) [DGI-2-20F-PP-F5] stands “binds”; under RGSLLLTLPRLSGAVGTAYG (on M13 phage, pIII fusion with E-tag) [DGI-2-20F-PP-B3], “binds”.
Under YAMSSRECGIRNSGLILSMW (on M13 phage, pIII fusion with E-tag) [DGI-2-20F-PP-C9] stands “binds”; under LLLPVRWRDAQPRSLLMEWI (on M13 phage, pIII fusion with E-tag) [DGI-2-20F-PP-F8], “binds”; under GGDLGEQGVQLCPDVVRGGSL (on M13 phage, pIII fusion with E-tag) [DGI-2-20F-PP-A7], “binds”.
SRELGKWGRLWQDWSSGNFS (on M13 phage, pIII fusion with E-tag) [DGI-2-20R-3-C11]: the binding result is “binds”.
Under DRHRAFVAEGLDGFRHSTGV (on M13 phage, pIII fusion with E-tag) [DGI-2-20F-PP-D4] stands “binds”; under VWRDWVNGTVGLRNREKPGV (on M13 phage, pIII fusion with E-tag) [DGI-2-20R-3-A5], “binds”; under VTGTRFRGFAVACVRMGTWH (on M13 phage, pIII fusion with E-tag) [DGI-2-20F-PP-F2], “binds”.
As for LVIGQRSFLSACSLFDGFCV (not fully specified; cysteine pairing not given here, on M13 phage, pIII fusion with E-tag) [DGI-2-20R-4-H814], the entry is “binds”; as for SAFGCPLPRALGGGGARFYA (on M13 phage, pIII fusion with E-tag) [DGI-2-20F-PP-E11], “binds”; as for RISVGQCGTSRCGGGRRGGG (not fully specified; cysteine pairing not given here, on M13 phage, pIII fusion with E-tag) [DGI-2-20F-PP-D1], “binds”.
Regarding GRWDGWEVCGIWGADDCASG (not fully specified; cysteine pairing not given here, on M13 phage, pIII fusion with E-tag) [DGI-2-20R-4-H1], the binding result was “binds”.
Under VGHLLSRCAHHSPGMGASPYG (on M13 phage, pIII fusion with E-tag) [DGI-2-20F-PP-B11] stands “binds”.
Under RSYPRLCKQKGGVIGRMLPG (on M13 phage, pIII fusion with E-tag) [DGI-2-20F-PP-B2] stands “binds”.
As for PVYRVAMCRISVGCSAGAWF (not fully specified; cysteine pairing not given here, on M13 phage, pIII fusion with E-tag) [DGI-2-20F-PP-C12], the entry is “binds”; as for RRGVCEIFTGWCVGQTNERP (not fully specified (bridges); cysteine pairing not given here, on M13 phage, pIII fusion with E-tag) [DGI-2-20R-4-H626], “binds”; as for TPVAISIPAGVCSTSVCGRD (not fully specified; cysteine pairing not given here, on M13 phage, pIII fusion with E-tag) [DGI-2-20F-PP-C11], “binds”.
Consider FRMWVQSCFWGQPGTGCGEG (not fully specified; cysteine pairing not given here, on M13 phage, pIII fusion with E-tag) [DGI-2-20R-3-D2], for which the binding result is given as “binds”.
As for VQSGRDLGGLLRGGTGTEASP (on M13 phage, pIII fusion with E-tag) [DGI-2-20F-PP-D3], the entry is “binds”; as for CCAWNGVGVGGLGWRVVVGP (on M13 phage, pIII fusion with E-tag) [DGI-2-20F-PP-H4], “binds”.
Under GWSDFVATGSWSGQVSAALN (on M13 phage, pIII fusion with E-tag) [DGI-2-20R-4-F120] stands “binds”; under LWRRWSEGQLLGDGELRGDG (on M13 phage, pIII fusion with E-tag) [DGI-2-20R-3-B52], “binds”.
Under TFTRDVAGPAVSFVRLHSWN (on M13 phage, pIII fusion with E-tag) [DGI-2-20F-PP-A9] stands “binds”; under VVHTRAWGSWAYGFVLRNRG (on M13 phage, pIII fusion with E-tag) [DGI-2-20F-PP-F10], “binds”.
In the case of VGQSSGDARPLANLFVFPFV (on M13 phage, pIII fusion with E-tag) [DGI-2-20F-PP-F12], the binding result is given as “binds”.
Under LSLEGGWMWDTKGGDGGSAQ (on M13 phage, pIII fusion with E-tag) [DGI-2-20R-4-F93] stands “binds”; under RRFVRCSVPVALRSAVPVSV (on M13 phage, pIII fusion with E-tag) [DGI-2-20F-PP-A10], “binds”.
